The values below come from patent publication US20250340649A1 (RUTGERS THE STATE UNIVERSITY OF NEW JERSEY, published 2025).

Experiment [1] addresses T1, CD16a on NK92 (CD16+) cells (human, UniProt P08637 17-254).
T1 construct: whole, on cells; also called NK92 cells (CD16a+); haNK92 cells (CD16a+)
The experiment in a line: flow cytometry, NK92 cells (CD16a+). Background: In flow cytometry, cells or beads pass a laser one at a time.

For experiment [2], the target named is HER2 on the surface of HER2+ cancer cells (BT474, SKOV-3) (human) (UniProt P04626). The experiment in a line: flow cytometry on BT-474 cells (HER2+).
For experiment [3] the target is unchanged. The experiment in a line: flow cytometry on SKOV-3 cells (HER2+).
In experiment [4] the target is T2, CD16b on neutrophils (human, UniProt O75015 17-200).
T2 construct: whole, on cells; also called neutrophils (CD16b+)
T2 sequence (O75015 17-200): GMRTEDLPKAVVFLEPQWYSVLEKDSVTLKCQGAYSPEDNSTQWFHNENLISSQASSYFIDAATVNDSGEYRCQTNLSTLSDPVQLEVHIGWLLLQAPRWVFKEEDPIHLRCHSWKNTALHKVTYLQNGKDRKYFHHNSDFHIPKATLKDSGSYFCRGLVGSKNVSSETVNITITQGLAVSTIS
The experiment in a line: flow cytometry, neutrophils (CD16b+); value at the PE-H- gate inside the histogram.

Experiment [5] deals with T2, CD16b on neutrophils. The experiment in a line: flow cytometry, neutrophils (CD16b+); value of the drawn table.
Experiment [6] has as its target T2, CD16b on neutrophils. The experiment can be described thus: flow cytometry, neutrophils (CD16b+).
Experiment [7] has as its target T2, CD16b on neutrophils. The experiment in a line: flow cytometry, neutrophils (CD16b+); value at the PE-H+ gate inside the histogram.
For experiment [8], the target named is T3, Biotinylated Human Fc gamma RIIIB/CD16b (NA1) Protein, His, Avitag (Acrobiosystems CDB-H82E4) (human, UniProt O75015 17-200, biotinylated (Avitag)).
T3 construct: NA1 allele; also called CD16b-NAI
T3 sequence (O75015 other isoform, or with tags, fused parts or gaps limits assumed): as the sequence (O75015 17-200) above, with S20R, N66D, I90V counted along it
The experiment in a line: BLI (Octet), biotinylated CD16b-NA1 on streptavidin sensor, VHH 1.875-60 nM. On the procedure:
An Octet® Streptavidin (SA) Biosensor was soaked for at least 10 min in DPBS supplemented with 0.1% Casein, biotinylated CD16a, CD16b-NA1, CD16b-NA2, and HER2 antigens were loaded onto the streptavidin (SA) biosensor until 1 nm shift was reached. Next, the sensor was dipped into the washing buffer (DPBS+0.05% Tween 20+0.1% Casein) for 2 min to reach the baseline. […] Then, in the dissociation step, sensors were dipped into the washing buffer for 5 min to acquire data (Table 5). The data were then analyzed using Octet Data Analysis HT 11.1 software. The sensorgrams were subtracted from the reference and fitted into 1:1 binding model for data analysis. Finally, the affinity and kinetics were analyzed using “Association and Dissociation”.

Experiment [9] concerns the target T4, biotinylated CD32b (UniProt P31994 46-217, biotinylated).
T4 construct: also called CD32b antigen
T4 sequence (looked up): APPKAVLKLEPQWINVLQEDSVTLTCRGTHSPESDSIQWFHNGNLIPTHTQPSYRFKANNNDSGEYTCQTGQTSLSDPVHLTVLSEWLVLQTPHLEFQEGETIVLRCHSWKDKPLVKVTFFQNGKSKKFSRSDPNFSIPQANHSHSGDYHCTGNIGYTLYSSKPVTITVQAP
The experiment can be described thus: ELISA, biotinylated antigen on streptavidin plate. On the procedure: The purified VHHs were subjected to functional analysis using ELISA and flow cytometry. For ELISA, 50 μL of biotinylated CD16a, CD16b-NA1, CD16b-NA2, and CD32b were added to the streptavidin-coated plate and incubated for 45 min at RT. Following washing, the 100 μL of 100 nM purified VHHs were added and incubated at RT for 1 h. Next, 100 μL anti-HA tag HRP conjugated secondary antibody was added. Finally, the substrate was added for color development, and the plate was read using OD of 450 nm.
CD32b and skim milk were also used as antigen controls. 3G8 and eBioCB16, which are anti-CD16a/b mAbs were used as antibody controls. […] CD32b is a receptor that is expressed on B cells and responsible for inhibiting B cell activation. One of the disadvantages of mAb-based therapies is the binding of their Fc region to CD32b leading to the diminished activity of humoral immunity.

The target of experiment [10] is T5, CD32b on B cells (UniProt P31994 43-310).
T5 construct: whole, on cells; also called B cells (CD32b+)
T5 sequence (looked up): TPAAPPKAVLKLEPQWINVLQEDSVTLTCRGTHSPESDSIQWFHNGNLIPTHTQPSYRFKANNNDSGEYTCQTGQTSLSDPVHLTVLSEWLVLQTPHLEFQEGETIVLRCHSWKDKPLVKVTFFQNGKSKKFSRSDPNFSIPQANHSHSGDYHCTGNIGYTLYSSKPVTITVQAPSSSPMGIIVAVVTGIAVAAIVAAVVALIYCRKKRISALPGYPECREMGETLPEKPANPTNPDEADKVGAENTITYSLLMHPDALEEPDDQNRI
The experiment can be described thus: flow cytometry on B cells (CD32b+).

For experiment [11], the target named is T1, CD16a on NK92 (CD16+) cells. The experiment in a line: flow cytometry, fixed haNK92 (CD16+) cells, tenfold dilutions, anti-histag-FITC. Here is the method:
First, CD16a+NK92 was harvested and washed once using Dulbecco's phosphate-buffered saline (DPBS) supplemented with 2% FBS (2% DPBS-FBS). Next, all the cells were fixed using 3.7% paraformaldehyde for 20 min at RT, followed by washing twice. […] Following washing three times, the secondary antibody, anti-Histag antibody FITC labeled, was added. After washing, the samples were run on Cytoflex using FL1 channel.

The target of experiment [12] is T2, CD16b on neutrophils. The experiment can be described thus: flow cytometry on neutrophils (CD16b+). On the procedure:
For flow cytometry, haNK92 cells (CD16a+) and Neutrophils (CD16b⁺) were used. […] The human Neutrophil cells were purchased from HemaCare and cultured according to the manufacturer's protocol. First, both cell lines were harvested and washed once using DPBS supplemented with 2% FBS (2% DPBS-FBS). For each sample, 0.5×10⁶ cells were stained with antibody on ice for 60 min. In this experiment, 3G8 monoclonal antibody was used as a positive control. This antibody binds to both CD16a and CD16b. Following washing three times, the secondary antibody, anti-Histag antibody FITC labeled, was added. After washing, the samples were run on Cytoflex using FL2 channel.
In this experiment, NK92 cells (CD16a⁺), neutrophils (CD16b⁺), and B cells (CD32b⁺) were used as cell controls. 3G8 (anti-CD16a/b) and AT10 (anti-CD32a/b) mAbs were used as antibody controls.

Experiment [13] deals with T6, Biotinylated Human Fc gamma RIIIA/CD16a (F176) Protein, Avitag, His Tag (Acrobiosystems CDA-H82E8) (human, UniProt P08637 17-208, biotinylated (Avitag)).
T6 construct: also called biotinylated CD16a; CD16a antigen
T6 sequence (P08637 17-208 limits assumed): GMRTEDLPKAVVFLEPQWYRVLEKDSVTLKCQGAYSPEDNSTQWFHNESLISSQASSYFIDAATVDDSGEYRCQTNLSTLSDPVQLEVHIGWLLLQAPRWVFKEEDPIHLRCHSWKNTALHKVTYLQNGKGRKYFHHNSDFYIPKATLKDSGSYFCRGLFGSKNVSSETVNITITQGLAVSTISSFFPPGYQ
The experiment in a line: ELISA, biotinylated CD16a on streptavidin plate, tenfold dilutions 0-1000 nM, anti-cMyc-HRP. On the procedure:
For ELISA, 50 μL of biotinylated CD16a was added to the streptavidin-coated plate and incubated for 45 min at RT. […] Next, 100 μl anti-cMyc tag HRP conjugated secondary antibody (1:10,000 dilutions) was added. Finally, after washing, the substrate was added for color development, and the plate was read using OD of 450 nm.

In experiment [14] the target is T6, Biotinylated Human Fc gamma RIIIA/CD16a …. The experiment in a line: BLI (Octet), biotinylated CD16a on streptavidin sensor, VHH 1.875-60 nM.

T1 sequence (P08637 17-254 F176V): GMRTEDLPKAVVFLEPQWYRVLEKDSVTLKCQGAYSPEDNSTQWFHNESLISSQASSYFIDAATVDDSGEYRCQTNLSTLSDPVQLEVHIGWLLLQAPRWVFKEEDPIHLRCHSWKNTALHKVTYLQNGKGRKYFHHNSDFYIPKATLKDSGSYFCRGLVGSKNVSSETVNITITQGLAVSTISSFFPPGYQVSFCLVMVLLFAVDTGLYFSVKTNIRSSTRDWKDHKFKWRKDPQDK

Turning to Isotype (antibody), in experiment [1], the FITC+ was determined as 0.71%, the FITC- was 99.3% and the MFI amounted to 25000. In experiment [2], this molecule gave an FITC+ (%) of 0.45%, an FITC- (%) of 99.6% and a Mean (MFI) of 935. For the same molecule, in [3], the FITC+ (%) stood at 0.97%, the FITC- (%) is 99% and the Mean (MFI) worked out at 915. The PE- in [4] is 95.6%. In addition, the PE- in experiment [5] was 90.6%. In experiment [6], the MFI stood at 867 and the PE+ was 4.42%.
In [1], “CD16 Monoclonal Antibody (3G8), Functional Grade, eBioscience” registered an FITC+ of 82.2%, an FITC- of 17.8% and an MFI of 88200. Moreover, in [7], the PE+ was 61.9%. This molecule returned a PE+ in [5] of 61.1%. Further, in experiment [6], the MFI stood at 18000 and the PE- is 38.1%.

B1: C1 anti-CD16a VHH (VHH)
VHH: QVQLQESGGGLVQAGGSLRLSCAASGRTFRLYRMGWFRQAPGKEREFVGSIKMIDGSTLYGDPVKGRFTISRDNTKFMAYLQMNSLKPEDTAVYYCASVSRVTGSYDSWGQGTQVTVSSYPYDVPDYAHHHHHHHH
notes: also called C1 clone; C1 VHH
On to B1, for which the dissociation constant (Kd) – broadly, the constant that tells how readily two partners part at equilibrium – in experiment [8] was determined as 119 nM; in experiment [14], 1.73 nM. Further, the koff (in general, the rate constant with which the complex falls apart) in [8] stood at 0.0255 s⁻¹; in [14] it was 0.000479 s⁻¹. In addition, the kon (as a rule, the second-order rate constant of association) in experiment [8] was 213000 M⁻¹ s⁻¹; in [14], 277000 M⁻¹ s⁻¹. In addition, the binding result in experiment [9] is given as “no binding (tested: 100 nM)”; in [10], “no binding”; in experiment [12] it was “no binding”. Besides, the EC50 (read off the curve) (usually the concentration giving half of the maximal effect) in [11] was around 1 nM; in experiment [13], around 0.3 nM.
